Reference: the supplement of paper PMC7877785
± gives the uncertainty stated by the source.

Assay: self-splicing fitness, log relative to wild type (ln ratio); higher = more splicing; Tetrahymena group I intron in knt gene, E. coli kanamycin selection, DiMSum; sequences stand for … in CUCUCU…GGAGGGAAAAGUUAUCAGGCAUGCACCUGGUAGCUAGUCUUUAAACCAAUAGAUUGCAUCGGUUUAAAAGGCAAGACCGUCAAAUUGCGGGAAAGGGGUCAACAGCCGUUCAGUACCAAGUCUCAGGGGAAACUUUGAGAUGGCCUUGCAAAGGGUAUGGUAAUAAGCUGACGGACAUGGUCCUAACCACGCAGCCAAGUCCUAAGUCAACAGAUCUUCUGUUGAUAUGGAUGCAGUUCACAGACUAAAUGUCGGUCGGGGAAGAUGUAUUCUUCUCAUAAGAUAUAGUCGGACCUCUCCUUAAUGGGAGCUAGCGGAUGAAGUGAUGCAACACUGGAGCCGCUGGGAACUAAUUUGUAUGCGAAAGUAUAUUGAUUAGUUUUGGAGUACUCGUGGUCG
Outline: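 Library with all eight P1ex-region intron nucleotides randomised, intron inside the knt kanamycin-resistance gene on pET-22b(+), in E. coli BL21(DE3). Cells grew overnight at 37°C or 30°C on LB agar with or without 25 μg/mL kanamycin (plus 100 μg/mL carbenicillin, 50 μM IPTG, 0.2% rhamnose), in six replicate transformations. Pooled colonies were amplicon-sequenced on Illumina HiSeq 2500. DiMSum fitness is the error-weighted combination of wild-type-normalised replicate fold changes, kanamycin versus none.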

Row | Sequence | self-splicing fitness (ln) (30 °C) | self-splicing fitness (ln) (37 °C)
1 | UUGCAGCAAUAUUACGCGCU | -1.88 ± 0.18 | -0.656 ± 0.19
2 | GCGUAGCAAUAUUACGCCGA | – | -2.28 ± 0.47
3 | AGAAAGCAAUAUUACGCUUC | -1.58 ± 0.27 | -2.22 ± 0.39
4 | UUUGAGCAAUAUUACGAUAA | -1.25 ± 0.087 | -0.386 ± 0.095
5 | UCGAAGCAAUAUUACGUUUC | -1.9 ± 0.14 | -3.66 ± 0.36
6 | CGCCAGCAAUAUUACGAAAC | -4.57 ± 0.36 | -1.78 ± 0.2
7 | CUAAAGCAAUAUUACGCGCC | -2.84 ± 0.23 | -2.6 ± 0.4
8 | CAUGAGCAAUAUUACGGCCG | -1.25 ± 0.12 | -0.62 ± 0.16
9 | GAUAAGCAAUAUUACGAAGA | -3.41 ± 0.24 | -1.7 ± 0.22
10 | GCGCAGCAAUAUUACGCAGC | – | -1.32 ± 0.33
11 | UACGAGCAAUAUUACGAGCG | -1.12 ± 0.13 | -0.262 ± 0.14
12 | GGGGAGCAAUAUUACGCUCU | – | -2.19 ± 0.49
13 | UAGAAGCAAUAUUACGGUGU | -3.23 ± 0.14 | -3.06 ± 0.15
14 | CAUUAGCAAUAUUACGUAGA | -0.475 ± 0.11 | -1.51 ± 0.2
15 | CACAAGCAAUAUUACGCCCA | -0.966 ± 0.091 | 0.114 ± 0.09
16 | UUGAAGCAAUAUUACGCAGC | -3.74 ± 0.3 | -1.05 ± 0.34
17 | CCUAAGCAAUAUUACGUCAC | – | -1.54 ± 0.49
18 | CUGGAGCAAUAUUACGUUUG | -2.66 ± 0.17 | -1.21 ± 0.17
19 | AAUGAGCAAUAUUACGCUAG | – | -1.93 ± 0.36
20 | GACCAGCAAUAUUACGUGAU | -0.306 ± 0.05 | -0.151 ± 0.063
21 | CACGAGCAAUAUUACGAGUU | -4.28 ± 0.18 | -2.2 ± 0.12
22 | GUCCAGCAAUAUUACGCAAA | -1.46 ± 0.12 | -0.457 ± 0.11
23 | UCUGAGCAAUAUUACGGGGA | -2.89 ± 0.2 | -1.97 ± 0.19
24 | AUCCAGCAAUAUUACGUGGA | -4.34 ± 0.39 | -2.23 ± 0.19
25 | UCUAAGCAAUAUUACGUACA | -1.57 ± 0.13 | -1.13 ± 0.13

Row | Sequence | self-splicing fitness (ln) (30 °C) | self-splicing fitness (ln) (37 °C)
26 | ACUAAGCAAUAUUACGGACG | -0.961 ± 0.087 | -0.106 ± 0.14
27 | GUCCAGCAAUAUUACGAAUA | 0.0949 ± 0.13 | -0.595 ± 0.15
28 | CGGCAGCAAUAUUACGCUUG | -2.4 ± 0.15 | -2.31 ± 0.23
29 | UCAUAGCAAUAUUACGCUGU | -2.91 ± 0.17 | -1.95 ± 0.24
30 | UAGCAGCAAUAUUACGCACC | -0.936 ± 0.16 | -0.423 ± 0.16
31 | UAACAGCAAUAUUACGAGGU | -4.14 ± 0.23 | -2.58 ± 0.23
32 | CAGAAGCAAUAUUACGCUGC | – | -2.34 ± 0.49
33 | AACUAGCAAUAUUACGGCUA | -1.08 ± 0.11 | -1.22 ± 0.11
34 | GUAAAGCAAUAUUACGCCAU | -1.89 ± 0.1 | -0.44 ± 0.12
35 | GUGUAGCAAUAUUACGUGAU | -1.59 ± 0.17 | 0.0886 ± 0.19
36 | AACUAGCAAUAUUACGAUUC | -1.81 ± 0.094 | -0.882 ± 0.11
37 | GAGAAGCAAUAUUACGUACG | -1.42 ± 0.1 | -0.572 ± 0.12
38 | AGUAAGCAAUAUUACGUCUU | -0.968 ± 0.072 | -0.0602 ± 0.078
39 | CGAUAGCAAUAUUACGCACA | -0.708 ± 0.088 | -0.0385 ± 0.12
40 | CAUAAGCAAUAUUACGAUCC | -3.25 ± 0.23 | -2.71 ± 0.32
41 | CAGGAGCAAUAUUACGUGUC | -3.59 ± 0.21 | -3.03 ± 0.18
42 | AAUCAGCAAUAUUACGGCAC | -0.508 ± 0.086 | -0.24 ± 0.12
43 | CAAGAGCAAUAUUACGAAAA | – | -2.78 ± 0.38
44 | ACAGAGCAAUAUUACGAACU | -3.35 ± 0.21 | -1.61 ± 0.21
45 | AGUCAGCAAUAUUACGCGUA | -0.295 ± 0.067 | 0.106 ± 0.07
46 | GCUUAGCAAUAUUACGUGUG | -1.91 ± 0.054 | -1.14 ± 0.066
47 | UAAAAGCAAUAUUACGUAAA | -1.34 ± 0.077 | -1.1 ± 0.09
48 | CUGGAGCAAUAUUACGUGGC | -2.22 ± 0.21 | -2.13 ± 0.25
49 | AUUGAGCAAUAUUACGAACG | -2.34 ± 0.18 | -0.91 ± 0.3
50 | GCUUAGCAAUAUUACGGAGU | -2.9 ± 0.26 | -0.418 ± 0.19
